Assay results reported in patent US20180258158A1 (Bristol-Myers Squibb, published 2018).
Where a chain is given by its changes, count along the chain named. In names and notes the source's numbering stands.

B1: ADX_6727_B01 (K85S) (designed binder)
chain: MGVSDVPRDLEVVAATPTSLLISWDAPAVTVRYYRITYGREVQKYSDLGPLYIYQEFTVPGSKSTATISGLKPGVDYTITVYAVTGSGESPASSSPISINYRTEIDKPSQHHHHHH
notes: Full His6-tagged entry
B2: ADX_6727_B11 (Q33D/K85S) (designed binder)
chain: B1 chain with Q43D
notes: Full His6-tagged entry
B3: ADX_6727_F04 (Y44A/K85A) (designed binder)
chain: B1 chain with Y54A, S95A
notes: Full His6-tagged entry
B4: ADX_6727_H02 (I43S) (designed binder)
chain: B1 chain with I53S, S95K
notes: Full His6-tagged entry
B5: ADX_6727_B05 (I43S/K85T) (designed binder)
chain: B1 chain with I53S, S95T
notes: Full His6-tagged entry
B6: ADX_6727_C03 (Y35S) (designed binder)
chain: B1 chain with Y45S, S95K
notes: Full His6-tagged entry
B7: ADX_6727_F06 (L41A/K85T) (designed binder)
chain: B1 chain with L51A, S95T
notes: Full His6-tagged entry
B8: ADX_6727_G05 (I43S/K85A) (designed binder)
chain: B1 chain with I53S, S95A
notes: Full His6-tagged entry
B9: ADX_6727_D02 (R30N) (designed binder)
chain: B1 chain with R40N, S95K
notes: Full His6-tagged entry
B10: ADX_6727_D01 (K85T) (designed binder)
chain: B1 chain with S95T
notes: Full His6-tagged entry
B11: ADX_6727_C07 (R30A/K85S) (designed binder)
chain: B1 chain with R40A
notes: Full His6-tagged entry
B12: ADX_6727_C01 (K85A) (designed binder)
chain: B1 chain with S95A
notes: Full His6-tagged entry
B13: ADX_6727_G01 (L41A) (designed binder)
chain: B1 chain with L51A, S95K
notes: Full His6-tagged entry
B14: ADX_6727_F03 (I43Y as printed in Table 4; I43A in Table 7) (designed binder)
chain: B1 chain with I53A, S95K
notes: Full His6-tagged entry
B15: ADX_6727_D06 (Y44A/K85S) (designed binder)
chain: B1 chain with Y54A
notes: Full His6-tagged entry
B16: ADX_6727_D10 (Q33D/K85T) (designed binder)
chain: B1 chain with Q43D, S95T
notes: Full His6-tagged entry

Biological target: T1, human serum albumin (HSA), full length (human, UniProt P02768 25-609)
T1 construct: mature; Immobilized on CM5 chip (SPR) or coated on plates (ELISA)
T1 sequence (P02768 25-609): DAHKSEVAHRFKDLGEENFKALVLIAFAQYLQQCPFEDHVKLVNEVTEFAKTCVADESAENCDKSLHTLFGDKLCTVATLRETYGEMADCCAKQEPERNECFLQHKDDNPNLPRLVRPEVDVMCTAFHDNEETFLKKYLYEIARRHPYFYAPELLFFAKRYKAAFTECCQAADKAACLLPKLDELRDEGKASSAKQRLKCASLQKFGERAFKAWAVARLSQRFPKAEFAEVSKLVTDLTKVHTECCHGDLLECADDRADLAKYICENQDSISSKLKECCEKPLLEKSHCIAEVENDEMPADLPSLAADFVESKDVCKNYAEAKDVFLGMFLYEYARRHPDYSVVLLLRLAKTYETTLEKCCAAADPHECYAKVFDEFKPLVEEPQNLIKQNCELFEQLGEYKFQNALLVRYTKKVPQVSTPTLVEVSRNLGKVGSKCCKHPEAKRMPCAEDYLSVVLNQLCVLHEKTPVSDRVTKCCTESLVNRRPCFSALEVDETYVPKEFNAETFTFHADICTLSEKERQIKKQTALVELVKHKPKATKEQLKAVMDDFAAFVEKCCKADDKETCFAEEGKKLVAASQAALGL
Experiment: direct binding ELISA, coated HSA, anti-His-HRP
Set-up: unit not given here
Experimental: (§1) Direct binding ELISA assays were conducted as follows. Full length human and murine serum albumin at 10ug/ml in PBS were coated on Nunc Maxisorp plates overnight at 4° C. Plates were blocked in casein/PBS buffer. PKE Adnectins were allowed to bind over a 4-point concentration range of 0.032-4 uM for HSA and 0.008-1 uM for MSA. Bound Adnectin was detected by anti-His antibody conjugated with HRP (horseradish peroxidase) diluted 1:1500 in casein/PBS. Plates were developed with TMB substrate and absorbance read at 450 nm. Adnectins were binned as high, medium and low affinity binders based on the observed Ymax of the concentration response curves.

Binder | HSA DB ELISA (OD450) Ymax obs | HSA DB ELISA (OD450) Ymin obs
B1 | 97 | 94
B2 | 12 | 1
B3 | 56 | 6
B4 | 37 | 2
B5 | 60 | 4
B6 | 99 | 31
B7 | 90 | 19
B8 | 38 | 2
B9 | 99 | 20
B10 | 97 | 88
B11 | 100 | 44
B12 | 98 | 88
B13 | 79 | 12
B14 | 89 | 9
B15 | 67 | 8
B16 | 19 | 2

Biological target: T2, mouse serum albumin (MSA), full length (mouse, UniProt P07724 25-608)
T2 construct: mature; Immobilized on CM5 chip (SPR) or coated on plates (ELISA); also called mouse albumin; murine serum albumin
Experiment: direct binding ELISA, coated MSA, anti-His-HRP
Set-up: unit not given here
Experimental: as §1

Binder | MSA DB ELISA (OD450) Ymax obs | MSA DB ELISA (OD450) Ymin obs
B1 | 91 | 88
B2 | 11 | 1
B3 | 77 | 2
B4 | 39 | 1
B5 | 63 | 2
B6 | 95 | 23
B7 | 91 | 4
B8 | 32 | 1
B9 | 93 | 17
B10 | 91 | 88
B11 | 94 | 6
B12 | 93 | 90
B13 | 87 | 3
B14 | 67 | 2
B15 | 85 | 1
B16 | 42 | 1

Biological target: T1, human serum albumin (HSA), full length
Experiment: SPR off-rate ratio to parent ADX_7016_A01, HSA, 25 C
Experimental: (§2) Measurements were conducted by SPR and ELISA. SPR was conducted as follows. Full length HSA or mouse albumin was immobilized on a Biacore T series CM5 chip at 15 ug/mL in 10 mM acetate buffer (pH 5.0) buffer using standard NHS/EDC coupling, to a surface density of approximately 1000-1100 RU. For off-rate measurements at 25° C., PKE Adnectins were applied as analytes at 500 nM in HBS-P+(0.01 M HEPES pH 7.4, 0.15 M NaCl, 0.005% v/v Surfactant P20) running buffer at a flow rate of 20ul/min for 120 s over the immobilized albumins, followed by 800 s for dissociation. […] Regeneration of the chip surface between cycles was accomplished with two 30 second pulses of 10 mM Glycine, pH 2.0. Kinetic traces of reference-subtracted sensorgrams were fit to a 1:1 binding model for affinity using the Biaevaluation software. Only the dissociation phase was fit for determination of off-rates.

Binder | HSA kd/Parent kd
B1 | 1.2
B2 | 56
B3 | 23
B4 | 52
B5 | 28
B6 | 4
B7 | 11
B8 | 53
B9 | 5
B10 | 1
B11 | 8
B12 | 1.1
B13 | 14
B14 | 17
B15 | 20
B16 | 50

Biological target: T2, mouse serum albumin (MSA), full length
Experiment: SPR off-rate ratio to parent ADX_7016_A01, MSA, 25 C
Experimental: as §2

Binder | MSA kd/Parent kd
B1 | 1.2
B3 | 16.2
B4 | 22.8
B5 | 18.2
B6 | 2.8
B7 | 12.8
B8 | 27
B9 | 2.8
B10 | 1
B11 | 7.8
B12 | 1.2
B13 | 14.9
B14 | 8.9
B15 | 14.5
B16 | 142

Biological target: T1, human serum albumin (HSA), full length
Experiment: SPR off-rate, immobilized HSA, 500 nM Adnectin, 25 C
Experimental: as §2

Binder | koff [s⁻¹]
B1 | 0.000321
B2 | 0.0151
B3 | 0.00624
B4 | 0.0139
B5 | 0.00749
B6 | 0.00107
B7 | 0.00298
B8 | 0.0143
B9 | 0.00135
B10 | 0.000259
B11 | 0.00218
B12 | 0.000297
B13 | 0.0037
B14 | 0.00468
B15 | 0.00546
B16 | 0.0134

Biological target: T2, mouse serum albumin (MSA), full length
Experiment: SPR off-rate, immobilized MSA, 500 nM Adnectin, 25 C
Experimental: as §2

Binder | koff [s⁻¹]
B1 | 0.000501
B3 | 0.00694
B4 | 0.00977
B5 | 0.00781
B6 | 0.00121
B7 | 0.0055
B8 | 0.0116
B9 | 0.00118
B10 | 0.000433
B11 | 0.00334
B12 | 0.000509
B13 | 0.00639
B14 | 0.0038
B15 | 0.00622
B16 | 0.0608
